According to patent US20230346960A1:
No end group written: not given here.

Target: collagen IV/laminin (2% reduced growth factor Matrigel, Corning #354230)
Experiment: plate binding assay, biotinylated molecule on Matrigel-coated plate, streptavidin-HRP, absorbance 450 nm

binding capacity: 1.1 AU
B1: DS-SILY4 (biotinylated; dermatan sulfate backbone with 4 SILY peptide substitutions per DS) (peptide)
peptide: RRANAALKAGELYKSILYGSG
modifications: not fully specified (C-terminus); also: about 4 peptides per dermatan sulfate, one equivalent N-terminally biotinylated SILY-hydrazide also conjugated
